Measurements: IntAct's records for PubMed 22913516

Target: kcc2b_mouse Camk2b (UniProt P28652)
Sequence (P28652 whole entry): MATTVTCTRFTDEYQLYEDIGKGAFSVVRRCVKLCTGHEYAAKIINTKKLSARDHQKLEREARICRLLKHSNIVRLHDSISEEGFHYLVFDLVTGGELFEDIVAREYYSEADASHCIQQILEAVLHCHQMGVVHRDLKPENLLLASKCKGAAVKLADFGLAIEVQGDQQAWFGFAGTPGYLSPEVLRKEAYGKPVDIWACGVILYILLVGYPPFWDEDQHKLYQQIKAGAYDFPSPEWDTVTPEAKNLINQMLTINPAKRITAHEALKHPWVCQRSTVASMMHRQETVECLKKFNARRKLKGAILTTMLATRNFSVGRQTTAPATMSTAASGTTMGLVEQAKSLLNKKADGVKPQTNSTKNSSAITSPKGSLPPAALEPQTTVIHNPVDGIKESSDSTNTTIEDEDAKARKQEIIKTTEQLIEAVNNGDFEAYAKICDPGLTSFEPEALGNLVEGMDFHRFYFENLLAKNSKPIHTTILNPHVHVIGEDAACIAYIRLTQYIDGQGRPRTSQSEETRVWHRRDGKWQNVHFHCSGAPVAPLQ

## Ryanodine receptor 1 (Oryctolagus cuniculus (Rabbit)), P11716 S2843A
  effect of a mutation on the interaction: decreasing interaction
